Source: paper PMC4643140, “Low-Temperature-Induced Expression of Rice Ureidoglycolate Amidohydrolase is Mediated by a C-Repeat/Dehydration-Responsive Element that Specifically Interacts with Rice C-Repeat-Binding Factor 3”

Target: GST-OsCBF3 (Oryza sativa (rice), UniProt Q64MA1 1-238)
Assay: EMSA; 20 fmol probe, 1 ug protein; unlabeled E2 (2 pmol) competes; 20 uL reactions, Light-Shift Chemiluminescent EMSA Kit per manufacturer; buffer, salt, pH and temperature not stated
Conditions: protein: recombinant; tags: N-terminal GST (pGEX-4T-1); label: biotin on probe; blunt

GST-OsCBF3, sequence (Q64MA1 whole entry): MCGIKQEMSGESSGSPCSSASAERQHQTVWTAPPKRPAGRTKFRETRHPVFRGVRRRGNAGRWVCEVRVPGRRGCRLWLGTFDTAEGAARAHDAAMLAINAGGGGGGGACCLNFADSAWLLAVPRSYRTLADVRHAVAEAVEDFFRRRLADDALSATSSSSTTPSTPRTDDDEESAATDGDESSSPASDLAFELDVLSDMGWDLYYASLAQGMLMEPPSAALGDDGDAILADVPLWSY

B1: E2 (dsDNA)
DNA 1: AGCGTAGCTGCGGCGGAGAGCTCGCCGCCGACCCGCCCGGAGATTGGTTGCTTGCGCTG
DNA 2: CAGCGCAAGCAACCAATCTCCGGGCGGGTCGGCGGCGAGCTCTCCGCCGCAGCTACGCT
B1: binds.
